According to patent US20180111972A1 (Stanford University, published 2018):
Like-named read-outs stand apart in the source and are kept apart here.

Legend:
[1] = biological target: T1, soluble PDGFRβ (Fc or His format not stated for the experiment) (human, UniProt P09619 33-532); assay: yeast surface display titration; table under the panel 'PDGFR binding', Fc or His form not given
T1 construct: extracellular domain

[2] = biological target: T2, PDGFRβ-His (residues 1-314 of PDGFR-β with C-terminal hexahistidine tag) (human, UniProt P09619 33-314); assay: yeast surface display, flow cytometry titration of PDGFRβ-His
T2 construct: range 1-314; Monovalent form, expressed in FreeStyle 293-F cells; also called PDGRβ-His; PDGFR-His
T2 sequence (P09619 other isoform, or with tags, fused parts or gaps limits assumed, form in doubt): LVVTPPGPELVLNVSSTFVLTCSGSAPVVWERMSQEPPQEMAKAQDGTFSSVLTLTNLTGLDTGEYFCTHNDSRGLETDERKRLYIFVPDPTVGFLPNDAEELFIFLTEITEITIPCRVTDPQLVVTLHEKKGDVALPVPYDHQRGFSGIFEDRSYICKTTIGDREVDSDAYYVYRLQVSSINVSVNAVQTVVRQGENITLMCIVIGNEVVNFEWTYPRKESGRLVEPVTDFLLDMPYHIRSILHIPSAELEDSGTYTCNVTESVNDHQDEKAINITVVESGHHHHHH
Procedure: (§1) Cells were incubated in large enough volumes to avoid ligand depletion and appropriate time to reach equilibrium. During the last hour of incubation, yeast were incubated with 1:250 dilution of chicken anti-c-Myc (Invitrogen) in PBSA. […] Yeast were washed, pelleted, and resuspended in PBSA immediately before analysis by flow cytometry using BD FACSCalibur or BD Accuri C6. Flow cytometry data were analyzed using FlowJo (v7.6.1 and v10, Treestar) or BD Accuri C6 software. Statistical analysis was performed using GraphPad Prism 6.

[3] = biological target: T3, PDGFRβ-Fc (residues 1-314 of PDGFR-β fused to the Fc region of mouse IgG2a) (human; mouse, UniProt P09619 33-314); assay: yeast surface display titration, flow cytometry; PDGFRβ-Fc (bivalent)
T3 construct: range 1-314; Expressed in FreeStyle 293-F cells; also called PDGRβ-Fc; PDGFR-Fc; not shown: Fc region of mouse IgG2a
T3 sequence (P09619 33-314 limits assumed, form in doubt): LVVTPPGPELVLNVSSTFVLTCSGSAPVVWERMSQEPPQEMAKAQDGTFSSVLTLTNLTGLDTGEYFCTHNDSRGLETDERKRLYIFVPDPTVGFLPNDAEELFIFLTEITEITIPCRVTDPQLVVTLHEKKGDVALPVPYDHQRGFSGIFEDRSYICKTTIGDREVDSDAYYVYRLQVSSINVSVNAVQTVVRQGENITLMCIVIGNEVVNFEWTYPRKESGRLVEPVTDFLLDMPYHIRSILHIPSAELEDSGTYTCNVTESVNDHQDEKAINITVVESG
Procedure: as §1

[4] = biological target: T2, PDGFRβ-His (residues 1-314 of PDGFR-β …); assay: yeast surface display titration, flow cytometry; PDGFRβ-His (monovalent)
Procedure: We tested the monovalent version of PDGFR (PDGRβ-His) to remove any avidity effects that may affect the measurements.
as §1

[5] = biological target: T1, soluble PDGFRβ (Fc or His format not …); assay: yeast surface display, flow cytometry titration of soluble receptor; panel 'PDGFR binding', Fc or His form not given
[6] = biological target: T2, PDGFRβ-His (residues 1-314 of PDGFR-β …); assay: yeast surface display titration, flow cytometry
Procedure: as §1

[7] = biological target: T4, VEGFR2-His (residues 1-764 of VEGFR2, Ig-like domains 1-7, with hexahistidine tag) (human, UniProt P35968 20-764); assay: yeast surface display titration, flow cytometry
T4 construct: range 1-764; Monomeric form, expressed in FreeStyle 293-F cells; also called VEGFR-His
T4 sequence (P35968 other isoform, or with tags, fused parts or gaps limits assumed, form in doubt): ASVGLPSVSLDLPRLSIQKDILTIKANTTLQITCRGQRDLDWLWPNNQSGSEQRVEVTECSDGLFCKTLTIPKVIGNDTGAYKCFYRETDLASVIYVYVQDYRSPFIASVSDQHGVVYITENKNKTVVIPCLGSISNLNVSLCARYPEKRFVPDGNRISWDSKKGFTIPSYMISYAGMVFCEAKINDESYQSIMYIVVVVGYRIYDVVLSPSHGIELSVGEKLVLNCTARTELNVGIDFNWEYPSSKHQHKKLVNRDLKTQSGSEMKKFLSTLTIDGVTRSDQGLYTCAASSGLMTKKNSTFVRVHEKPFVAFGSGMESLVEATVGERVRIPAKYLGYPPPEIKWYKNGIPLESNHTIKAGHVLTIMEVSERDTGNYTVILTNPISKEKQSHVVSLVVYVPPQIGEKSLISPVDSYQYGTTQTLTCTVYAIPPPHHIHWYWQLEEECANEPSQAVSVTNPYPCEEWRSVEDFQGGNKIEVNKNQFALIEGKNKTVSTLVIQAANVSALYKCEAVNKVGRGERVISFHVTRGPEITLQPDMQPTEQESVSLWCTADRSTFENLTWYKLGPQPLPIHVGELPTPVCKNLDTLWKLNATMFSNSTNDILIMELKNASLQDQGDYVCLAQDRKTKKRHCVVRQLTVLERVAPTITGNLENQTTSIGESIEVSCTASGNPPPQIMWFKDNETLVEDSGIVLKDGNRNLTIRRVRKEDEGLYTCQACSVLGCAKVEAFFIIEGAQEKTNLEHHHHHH
Procedure: as §1

[8] = biological target: T4, VEGFR2-His (residues 1-764 of VEGFR2, …); assay: yeast surface display, flow cytometry equilibrium titration of VEGFR2-His, normalized fluorescence
Procedure: as §1

[9] = biological target: T2, PDGFRβ-His (residues 1-314 of PDGFR-β …); assay: yeast surface display titration, flow cytometry; remark: listed apart in the source
Procedure: as §1

[10] = biological target: T4, VEGFR2-His (residues 1-764 of VEGFR2, …); assay: yeast surface display titration, flow cytometry; remark: listed apart in the source
Procedure: as §1

VEGFR2-Fc (R&D Systems) = biological target: T5, VEGFR2-Fc (R&D Systems) (human, UniProt P35968 20-764); assay: yeast surface display, flow cytometry titration of VEGFR2-Fc
T5 construct: extracellular domain; Bought reagent; also called VEGFR-Fc; not shown: Fc part, detected with anti-human-IgG (Fc specific)
T5 sequence (P35968 20-764): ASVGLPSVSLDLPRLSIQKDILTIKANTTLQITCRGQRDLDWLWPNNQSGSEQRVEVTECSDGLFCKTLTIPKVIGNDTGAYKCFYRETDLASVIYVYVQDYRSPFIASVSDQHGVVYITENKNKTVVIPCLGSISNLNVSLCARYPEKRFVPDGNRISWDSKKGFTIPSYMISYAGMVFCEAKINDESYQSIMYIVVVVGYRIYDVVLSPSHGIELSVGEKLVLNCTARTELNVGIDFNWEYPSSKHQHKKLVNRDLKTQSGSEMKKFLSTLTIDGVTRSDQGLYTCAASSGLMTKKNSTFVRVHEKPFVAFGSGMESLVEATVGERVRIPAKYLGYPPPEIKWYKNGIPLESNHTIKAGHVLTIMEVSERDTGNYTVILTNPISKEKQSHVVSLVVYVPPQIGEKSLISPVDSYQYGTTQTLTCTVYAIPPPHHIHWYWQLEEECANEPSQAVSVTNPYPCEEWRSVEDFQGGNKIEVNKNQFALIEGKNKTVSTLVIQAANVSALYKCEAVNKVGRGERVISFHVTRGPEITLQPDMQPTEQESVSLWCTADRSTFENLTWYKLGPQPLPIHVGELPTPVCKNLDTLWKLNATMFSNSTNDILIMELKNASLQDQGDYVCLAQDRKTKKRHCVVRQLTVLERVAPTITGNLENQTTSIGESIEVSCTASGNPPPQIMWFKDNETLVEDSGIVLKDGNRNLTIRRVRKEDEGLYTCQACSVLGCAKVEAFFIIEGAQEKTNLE
Procedure: as §1

[11] = biological target: T3, PDGFRβ-Fc (residues 1-314 of PDGFR-β …); assay: yeast surface display, flow cytometry titration of PDGFRβ-Fc
Procedure: as §1

[12] = biological target: T6, human VEGFR on human umbilical vein endothelial cells (HUVECs) (human, UniProt P35968 20-1356); assay: flow cytometry on HUVECs, soluble ligand titrated 3 h at 4 C, anti-FLAG-PE
T6 construct: The phosphorylation blots on these cells detect VEGFR2
T6 sequence (P35968 20-1356 limits assumed): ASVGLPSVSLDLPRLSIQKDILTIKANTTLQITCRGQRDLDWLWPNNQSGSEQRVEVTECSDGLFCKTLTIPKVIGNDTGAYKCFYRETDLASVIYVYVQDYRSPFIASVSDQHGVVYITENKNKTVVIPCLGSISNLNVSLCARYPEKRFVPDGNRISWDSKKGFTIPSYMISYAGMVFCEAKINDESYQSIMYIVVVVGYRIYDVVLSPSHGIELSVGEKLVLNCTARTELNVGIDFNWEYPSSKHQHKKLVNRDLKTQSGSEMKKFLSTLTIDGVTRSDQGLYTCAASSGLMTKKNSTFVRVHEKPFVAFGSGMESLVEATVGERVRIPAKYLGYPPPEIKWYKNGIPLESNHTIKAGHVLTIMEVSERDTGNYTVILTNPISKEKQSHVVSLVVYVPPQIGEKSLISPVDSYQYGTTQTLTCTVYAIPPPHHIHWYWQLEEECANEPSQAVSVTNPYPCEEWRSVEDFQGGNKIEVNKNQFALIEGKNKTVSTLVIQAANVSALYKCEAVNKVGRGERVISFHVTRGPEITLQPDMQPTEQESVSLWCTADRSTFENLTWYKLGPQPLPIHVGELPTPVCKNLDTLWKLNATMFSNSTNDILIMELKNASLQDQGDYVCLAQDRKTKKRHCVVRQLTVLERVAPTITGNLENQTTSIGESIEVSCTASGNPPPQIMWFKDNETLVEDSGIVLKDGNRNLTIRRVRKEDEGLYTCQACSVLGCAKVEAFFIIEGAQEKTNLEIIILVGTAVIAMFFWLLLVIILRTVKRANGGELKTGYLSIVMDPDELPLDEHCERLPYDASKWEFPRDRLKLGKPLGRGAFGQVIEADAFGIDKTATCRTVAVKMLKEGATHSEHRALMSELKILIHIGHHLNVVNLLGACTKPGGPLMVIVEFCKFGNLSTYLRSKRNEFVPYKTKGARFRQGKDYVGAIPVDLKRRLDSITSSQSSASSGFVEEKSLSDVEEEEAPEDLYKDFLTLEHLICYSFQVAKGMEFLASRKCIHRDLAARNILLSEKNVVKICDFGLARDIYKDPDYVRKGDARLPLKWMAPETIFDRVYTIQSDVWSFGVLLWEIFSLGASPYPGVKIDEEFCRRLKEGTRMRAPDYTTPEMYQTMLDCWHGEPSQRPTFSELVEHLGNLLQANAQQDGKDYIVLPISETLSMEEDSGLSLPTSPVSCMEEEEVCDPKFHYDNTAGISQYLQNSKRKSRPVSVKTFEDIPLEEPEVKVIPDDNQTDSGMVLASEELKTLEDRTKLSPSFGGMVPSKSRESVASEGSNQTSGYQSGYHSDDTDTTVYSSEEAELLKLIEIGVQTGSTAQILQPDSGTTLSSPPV
Procedure: (§2) To test binding to VEGFR, human umbilical vein endothelial cells (HUVECs) and murine angiosarcoma endothelial cells (SVR) were used.
(§3) Cell-binding assay. Varying concentrations of scPDGF, scVEGF, and PDGF/VEGF ligands were incubated with 25,000 PDGFR- or VEGFR-expressing cells in binding buffer (20 mM Tris pH 7.5 with 1 mM MgCl₂, 1 mM MnCl₂, 2 mM CaCl₂, 100 mM NaCl, and 1 mg/ml BSA) for 5 hr (BJ-5ta, NIH/3T3) or 3 hr (HUVEC, SVR) at 4° C. Cells were washed and pelleted, then incubated with 1:100 R-PE-conjugated anti-FLAG antibody (Prozyme) for 15 min on ice. Cells were washed, pelleted, and resuspended in binding buffer immediately before analysis by flow cytometry using BD Accuri C6. Flow cytometry data were analyzed using BD Accuri C6 software, and statistical analysis was performed using GraphPad Prism 6.

[13] = biological target: PDGFRβ on DiscoveRx PathHunter U2OS PDGFRβ reporter cells (UniProt P09619 33-1106, limits assumed); assay: cell-based or functional assay
Chain of PDGFRβ on DiscoveRx PathHunter U2OS PDGFRβ reporter cells (P09619 33-1106 limits assumed): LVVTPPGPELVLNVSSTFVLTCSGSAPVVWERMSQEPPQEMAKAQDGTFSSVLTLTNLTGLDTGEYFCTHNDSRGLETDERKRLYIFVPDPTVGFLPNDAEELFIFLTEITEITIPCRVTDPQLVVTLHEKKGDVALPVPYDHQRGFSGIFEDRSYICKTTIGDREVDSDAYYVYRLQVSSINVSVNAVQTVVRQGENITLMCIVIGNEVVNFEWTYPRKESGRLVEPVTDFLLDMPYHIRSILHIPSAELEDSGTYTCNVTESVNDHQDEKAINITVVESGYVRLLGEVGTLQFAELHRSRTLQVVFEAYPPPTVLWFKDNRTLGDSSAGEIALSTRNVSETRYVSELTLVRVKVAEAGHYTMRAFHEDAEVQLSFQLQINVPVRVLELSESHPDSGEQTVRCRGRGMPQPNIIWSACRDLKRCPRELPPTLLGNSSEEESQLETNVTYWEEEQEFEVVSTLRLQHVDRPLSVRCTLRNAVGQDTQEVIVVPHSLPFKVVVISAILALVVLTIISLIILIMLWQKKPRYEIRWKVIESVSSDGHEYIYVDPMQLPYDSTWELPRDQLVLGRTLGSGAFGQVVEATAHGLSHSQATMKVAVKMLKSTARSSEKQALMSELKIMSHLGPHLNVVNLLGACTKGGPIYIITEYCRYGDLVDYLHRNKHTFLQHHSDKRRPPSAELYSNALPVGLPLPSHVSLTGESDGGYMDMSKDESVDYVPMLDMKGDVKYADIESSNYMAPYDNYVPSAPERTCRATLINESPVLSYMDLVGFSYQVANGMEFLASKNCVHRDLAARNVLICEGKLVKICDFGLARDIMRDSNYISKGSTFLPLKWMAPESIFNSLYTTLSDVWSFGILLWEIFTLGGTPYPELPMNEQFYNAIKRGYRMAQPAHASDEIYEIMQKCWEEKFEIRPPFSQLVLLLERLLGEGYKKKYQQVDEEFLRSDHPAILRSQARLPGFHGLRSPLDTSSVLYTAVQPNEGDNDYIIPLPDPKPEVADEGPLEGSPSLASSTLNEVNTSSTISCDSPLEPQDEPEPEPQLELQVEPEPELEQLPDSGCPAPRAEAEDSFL

[14] = biological target: T6, human VEGFR on human umbilical vein …; assay: flow cytometry titration of the soluble FLAG-tagged protein on HUVECs, anti-FLAG detection
Procedure: as §2, §3

[15] = biological target: T1, soluble PDGFRβ (Fc or His format not …); assay: yeast surface display, flow cytometry dot plot: soluble receptor bound (FL1) against surface expression (FL2); receptor concentration not printed [Cont.]
[16] = biological target: T7, soluble VEGFR2 (Fc or His format not stated for the experiment) (human, UniProt P35968 20-764); assay: as above
T7 construct: extracellular domain
T7 sequence (P35968 20-764): as the sequence (P35968 20-764) above

[17] = biological target: T7, soluble VEGFR2 (Fc or His format not …); assay: yeast surface display, flow cytometry dot plot: soluble receptor bound (FL1) against surface expression (FL2); receptor concentration not given

T1 sequence (P09619 33-532): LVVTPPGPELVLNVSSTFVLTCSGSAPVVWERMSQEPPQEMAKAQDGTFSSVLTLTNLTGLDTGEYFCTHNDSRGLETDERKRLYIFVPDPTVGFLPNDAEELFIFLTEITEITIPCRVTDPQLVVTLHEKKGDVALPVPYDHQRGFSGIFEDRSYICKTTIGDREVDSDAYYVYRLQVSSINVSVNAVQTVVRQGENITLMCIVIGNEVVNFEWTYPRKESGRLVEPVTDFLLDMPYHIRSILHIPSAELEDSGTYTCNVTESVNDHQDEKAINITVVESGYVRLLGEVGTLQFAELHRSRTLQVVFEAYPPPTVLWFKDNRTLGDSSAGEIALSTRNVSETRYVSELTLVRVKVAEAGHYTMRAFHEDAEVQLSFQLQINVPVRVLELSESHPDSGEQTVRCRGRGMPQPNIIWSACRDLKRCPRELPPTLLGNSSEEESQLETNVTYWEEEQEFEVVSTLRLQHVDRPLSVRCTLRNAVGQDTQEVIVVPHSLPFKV

B1: PV6 PDGF/VEGF chimera, yeast-displayed (designed binder)
chain: IAEPAMIAECHPIETLVDIFQEYPDEIEYIFKPSCVPLMRCGGCCNNRNVQCRPTEESNITMQIMRIKPHQGQHIGEMSFLQHNKCKCETVAAGSTSGSGKSSEGKGEVVKFMDVYQRSYCKTRTEVFEISRRLIDRTNANFLVWPPCVEVQRCSGCCNDEGLECVPTQVQLRPVQVRKIEIVRKKPIFKKATVTLEDHLACKCRPKKD
[1]
  Kd: 140 nM
[2]
  EC50 (read off the curve): ~100 nM
[3]
  Kd: 0.099 nM
[4]
  Kd: 140 nM
[5]
  EC50 (read off the curve): ~100 nM
[6]
  Kd: 270 nM
[7]
  Kd: 230 nM

B2: PVAM-S (PV R32A), yeast-displayed (designed binder)
chain: IAEPAMIAECHPIETLVDILQEYPDEIGYIFKPSCVPLMRCGGCCNNRNVQCRPTEESNITMQIMRIKPHRGQHIGEMSFLQHNKCRCETVAAGSTSGSGKSSEGKGEVVKFMDVYQRSYCKTRTEVFEISRRLIDATNANFLVWPPCVEVQRCSGCCNHEGLECVPTQVQLRPVQVRKIEFVRKKPIFKKATVTLEDHLACECRPKKD
notes: PVAM with R137A (R32A in PDGF-B numbering); also called R137A variant
[8]
  EC50 (read off the curve): ~1 nM
[9]
  Kd: 0.34 nM
[10]
  Kd: 1 nM

B3: V3-3, yeast-displayed variant from the Vshuf library (designed binder)
chain: IAEPAVIAECHPIETLVDILQEYPDEIGYIFKPSCVPLMRCGGCCNNRNVQCRPTEESNITMQIMRIKPHRGQHIGEMSFLQHNKCKCETVAAGSTSGSGKSSEGKGEVVKFMDVYQRSYCKTRTEVFEISRRLIDRTNANFLVWPPCVEVQRCSGCCNHEGLECVPTQVQLRPVQVRKIEIVRKKPIFKKATVTLEDHLACECRPKKD
VEGFR2-Fc (R&D Systems)
  binding result: binds

B4: PV6 K87R variant, yeast-displayed (designed binder)
chain: IAEPAMIAECHPIETLVDIFQEYPDEIEYIFKPSCVPLMRCGGCCNNRNVQCRPTEESNITMQIMRIKPHQGQHIGEMSFLQHNKCRCETVAAGSTSGSGKSSEGKGEVVKFMDVYQRSYCKTRTEVFEISRRLIDRTNANFLVWPPCVEVQRCSGCCNDEGLECVPTQVQLRPVQVRKIEIVRKKPIFKKATVTLEDHLACKCRPKKD
notes: Clone from the PDGFR sorts of the error-prone library made from PV6; also called PV K87R
[2]
  EC50 (read off the curve): ~6 nM
[3]
  Kd: 0.049 nM
[4]
  Kd: 6.4 nM
[11]
  EC50 (read off the curve): ~0.05 nM

B5: PV6 I182F variant, yeast-displayed (designed binder)
chain: IAEPAMIAECHPIETLVDIFQEYPDEIEYIFKPSCVPLMRCGGCCNNRNVQCRPTEESNITMQIMRIKPHQGQHIGEMSFLQHNKCKCETVAAGSTSGSGKSSEGKGEVVKFMDVYQRSYCKTRTEVFEISRRLIDRTNANFLVWPPCVEVQRCSGCCNDEGLECVPTQVQLRPVQVRKIEFVRKKPIFKKATVTLEDHLACECRPKKD
notes: Clone from the PDGFR sorts of the error-prone library made from PV6; also called PV I182F
[2]
  EC50 (read off the curve): ~3 nM
[3]
  Kd: 0.067 nM
[4]
  Kd: 2.5 nM
[11]
  EC50 (read off the curve): ~0.07 nM

B6: PVAM-S (PV R32A), soluble, FLAG and hexahistidine tags (designed binder)
chain: DYKDDDDKIAEPAMIAECHPIETLVDILQEYPDEIGYIFKPSCVPLMRCGGCCNNRNVQCRPTEESNITMQIMRIKPHRGQHIGEMSFLQHNKCRCETVAAGSTSGSGKSSEGKGEVVKFMDVYQRSYCKTRTEVFEISRRLIDATNANFLVWPPCVEVQRCSGCCNHEGLECVPTQVQLRPVQVRKIEFVRKKPIFKKATVTLEDHLACECRPKKDHHHHHH
notes: Secreted from S. cerevisiae YVH10 and treated with Endo Hf
[12]
  Kd: 0.53 nM
[13]
  IC50 of inhibition of stimulation by 0.5 nM PDGF-BB, PathHunter PDGFRβ reporter cells: 1.4 nM
[14]
  EC50 (read off the curve): ~0.7 nM

B7: PV3 PDGF/VEGF hybrid construct, yeast-displayed (designed binder)
chain: IAEPAMIAECKTRTEVVDIFQEYPDEIEYIFKPSCVPLMRCSGCCNNRNVQCRPTEESNITMQIMRIKPHQGQHIGEMSFLQHLACKCETVAAGSTSGSGKSSEGKGEVVKFMDVYQRSYCHPIETLFEISRRLIDRTNANFLVWPPCVEVQRCGGCCNDEGLECVPTQVQLRPVQVRKIEIVRKKPIFKKATVTLEDHNKCECRPKKD
notes: only PV1
[15]
  binding result: no binding
[16]
  binding result: no binding

B8: PV8 PDGF/VEGF hybrid construct, yeast-displayed (designed binder)
chain: IAEPAMIAECKTIETLVDIFQEYPDEIEYIFKPSCVPLMRCSGCCNNRNVQCRPTEESNITMQIMRIKPHQGQHIGEMSFLQHLACKCETVAAGSTSGSGKSSEGKGEVVKFMDVYQRSYCHPRTEVFEISRRLIDRTNANFLVWPPCVEVQRCGGCCNDEGLECVPTQVQLRPVQVRKIEIVRKKPIFKKATVTLEDHNKCECRPKKD
notes: the text names only PV6
[17]
  binding result: binds

B9: PV5 PDGF/VEGF hybrid construct, yeast-displayed (designed binder)
chain: IAEPAMIAECKTRTEVFEIFQEYPDEIEYIFKPSCVPLMRCSGCCNNRNVQCRPTEESNITMQIMRIKPHQGQHIGEMSFLQHLACKCETVAAGSTSGSGKSSEGKGEVVKFMDVYQRSYCHPIETLVDISRRLIDRTNANFLVWPPCVEVQRCGGCCNDEGLECVPTQVQLRPVQVRKIEIVRKKPIFKKATVTLEDHNKCECRPKKD
notes: only PV1
[15]
  binding result: no binding
[16]
  binding result: no binding

B10: PV4 PDGF/VEGF hybrid construct, yeast-displayed (designed binder)
chain: IAEPAMIAECKTRTEVFDIFQEYPDEIEYIFKPSCVPLMRCSGCCNNRNVQCRPTEESNITMQIMRIKPHQGQHIGEMSFLQHLACKCETVAAGSTSGSGKSSEGKGEVVKFMDVYQRSYCHPIETLVEISRRLIDRTNANFLVWPPCVEVQRCGGCCNDEGLECVPTQVQLRPVQVRKIEIVRKKPIFKKATVTLEDHNKCECRPKKD
notes: only PV1
[15]
  binding result: no binding
[16]
  binding result: no binding

B11: PV7 PDGF/VEGF hybrid construct, yeast-displayed (designed binder)
chain: IAEPAMIAECKTRETLVDIFQEYPDEIEYIFKPSCVPLMRCSGCCNNRNVQCRPTEESNITMQIMRIKPHQGQHIGEMSFLQHNKCKCETVAAGSTSGSGKSSEGKGEVVKFMDVYQRSYCHPITEVFEISRRLIDRTNANFLVWPPCVEVQRCGGCCNDEGLECVPTQVQLRPVQVRKIEIVRKKPIFKKATVTLEDHLACECRPKKD
notes: the text names only PV6
[17]
  binding result: binds
